Reference: patent US20200247855A1 (published 2020)
Changes are numbered by the printed parent chain.

Key:
[1] = molecular target: T1, CXCL10_HUMAN (human, UniProt P02778 22-98); assay: YSD FACS
T1 sequence: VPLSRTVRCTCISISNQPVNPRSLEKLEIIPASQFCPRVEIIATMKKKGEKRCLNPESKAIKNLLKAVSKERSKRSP

[2] = molecular target: T2, CXCL9_HUMAN (human, UniProt Q07325 23-125); assay: YSD FACS
T2 sequence: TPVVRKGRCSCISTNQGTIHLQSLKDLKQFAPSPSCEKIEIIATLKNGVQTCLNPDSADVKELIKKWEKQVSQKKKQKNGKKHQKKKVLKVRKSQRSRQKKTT

[3] = molecular target: T1, CXCL10_HUMAN; assay: YSD
[4] = molecular target: T3, P991_AMBCA (Amblyomma cajennense, UniProt A0A023FFD0 29-136); assay: BLI
T3 construct: His-tagged in BLI
T3 sequence: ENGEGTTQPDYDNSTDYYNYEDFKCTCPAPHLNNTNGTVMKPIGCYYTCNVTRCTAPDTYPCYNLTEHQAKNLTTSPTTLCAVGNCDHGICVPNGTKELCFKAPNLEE

[5] = molecular target: T4, P672_RHIPU (Rhipicephalus pulchellus, UniProt L7MC74 22-125); assay: BLI
T4 sequence: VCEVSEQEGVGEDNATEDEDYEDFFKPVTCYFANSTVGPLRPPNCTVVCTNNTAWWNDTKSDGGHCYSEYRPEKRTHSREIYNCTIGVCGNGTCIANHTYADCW

[6] = molecular target: T5, P985_AMBPA (Amblyomma parvum, UniProt A0A023FT45 25-132); assay: BLI
T5 construct: His-tagged in BLI
T5 sequence: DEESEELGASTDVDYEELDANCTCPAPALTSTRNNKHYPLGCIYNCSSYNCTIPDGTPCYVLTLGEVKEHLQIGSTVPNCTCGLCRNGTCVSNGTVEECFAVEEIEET

[7] = molecular target: CXCL12_HUMAN (human, UniProt P48061 22-89); assay: YSD FACS
CXCL12_HUMAN, sequence (P48061 22-89 limits assumed): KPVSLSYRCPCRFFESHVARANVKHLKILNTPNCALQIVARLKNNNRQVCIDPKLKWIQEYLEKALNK

[8] = molecular target: T6, CCL25_HUMAN (human, UniProt O15444 24-150); assay: YSD
T6 sequence: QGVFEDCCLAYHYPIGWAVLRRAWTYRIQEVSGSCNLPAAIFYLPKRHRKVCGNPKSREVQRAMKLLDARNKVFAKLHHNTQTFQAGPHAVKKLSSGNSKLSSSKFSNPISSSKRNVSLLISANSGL

[9] = molecular target: T7, CXCL8_HUMAN (human, UniProt P10145 28-99); assay: YSD
T7 sequence: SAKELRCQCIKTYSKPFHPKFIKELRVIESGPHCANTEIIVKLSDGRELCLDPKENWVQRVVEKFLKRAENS

[10] = molecular target: T8, P974_AMBCA (Amblyomma cajennense, UniProt A0A023FDY8 22-118); assay: BLI
T8 construct: His-tagged in BLI
T8 sequence: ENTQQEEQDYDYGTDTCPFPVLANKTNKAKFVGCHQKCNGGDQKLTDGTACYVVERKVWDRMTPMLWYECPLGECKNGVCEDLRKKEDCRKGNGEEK

[11] = molecular target: T9, P546_AMBCA (Amblyomma cajennense, UniProt A0A023FBW7 22-118); assay: BLI
T9 construct: His-tagged in BLI
T9 sequence: T8 sequence with Q8E, E69S, D88E

B1: P1134_IXORI (other)
chain: NEEVFTVEYCGMNCTQKSDGTWTECSGKNKDCRCYHESDAREGLCLSTEYTDFSQFETPSNSDLEAATPRPRKTLYPVRNPHGPKTRGLGYDKRILRDRVKFLI
notes: yeast surface display
Q: For B1, which “% cells over threshold fluorescence” value [1] is on record?
A: 66%

B2: P1124_IXORI (other)
chain: DSKGTSDSQDSTKSIKVDFCETNCTKTDGGWTGCTGDCICVSVGDSIEGRCMDFG
notes: yeast surface display
Q: For B2, which “% cells over threshold fluorescence” value [2] is on record?
A: 31%

B3: P1219_IXORI (other)
chain: ASLAKETEDTTLPARALVDSPDSDNCSSPQLPYFDELTYMPLGFLAVNCTKTCPVGKNGTVVNGNKCIVTWSILDVSTITVLVGSCKNGYCISDGSSECRNITLAGEDSQEEEEEAEEDEEEDDGDEEEDEEEDEEENDDD
notes: yeast surface display
Q: Does B3 bind [3]?
A: binds

B4: CCL23_HUMAN (ligand)
chain: RVTKDAETEFMMSKLPLENPVLLDRFHATSADCCISYTPRSIPCSLLESYFETNSECSKPGVIFLTKKGRRFCANPSDKQVQVCMRMLKLDTRIKTRKN
Q: Which results are given for B4?
A: Kd [4]: 5.58 nM; Kd [5]: 10 nM

B5: CCL24_HUMAN (ligand)
chain: VVIPSPCCMFFVSKRIPENRVVSYQLSSRSTCLKAGVIFTTKKGQQFCGDPKQEWVQRYMKNLDAKQKKASPRARAVA
Q: Which Kd [4] does the source give for B5 here?
A: 6.54 nM

Q: And the Kd [6]?
A: 41 nM

B6: P1080_IXORI (other)
chain: SAGSKGSSAPQSSGDSVVAEFCDTNCTMKKDGKWTECNGDCFCVHVGNETVGRCMRLDGDYDYTSSKTTRRNKKTRNGLCRLDRNRTTVDYPERNTREP
notes: yeast surface display
Q: How did the “% cells over threshold fluorescence” value [7] turn out when B6 was run?
A: 53%

Q: What about the “% cells over threshold fluorescence” value [2] of the same binder?
A: 49%

B7: P1224_IXORI (other)
chain: SDLCKMEAESSPFKLPQSSLLDAPDEEGCKYQLLFVEAEGPLVVNCTKDCPNGKIRTVVEGELCIAMVKTSSSGEATGLVGSCKRGSCVKKDDPCRTFTLSEEGDDDEEDEEEEEDEEEDEEEDEEEEEEDEEEED
notes: yeast surface display
Q: Does B7 bind [3]?
A: binds

B8: P1074_IXORI (other)
chain: GSKESSAHQSSDDSIKAEFCDAKCTMKTDGKWTQCHGGCFCVHVGNETEGRCMRLDGDYDYPSTQPEE
notes: yeast surface display
Q: For B8, which “% cells over threshold fluorescence” value [2] is on record?
A: 35%

B9: P1220_IXORI (other)
chain: GSTPSAMKTEDILKVLGSTSSLENHTDSSHCRYQELLDITKNIENAGFLAINCQRSCPNGKQTMVEGYGCIFKIKHATKRGKVKVKEGSCRKGACVRGSTRPPWRLLVLLGESKEEEFL
notes: yeast surface display
Q: Does B9 bind [8]?
A: binds

B10: P1096_IXORI (other)
chain: HTTVTGSVEGKPNNPNEDIEVSYCRMNCTVENGVSSACSGDCVCVHRDNEPNGICVEITYFGDFGDPSQDPSIDEAAPRESVSKRRSNGES
notes: yeast surface display
Q: How did the “% cells over threshold fluorescence” value [1] turn out when B10 was run?
A: 50%

B11: P1283_IXORI (other)
chain: KEPEDTTLPPGALVDSPDSDNCSSPHLPYFDETTNMWMGFLAVNCTKKCPVGKHVTVVDGNKCIGTWSFLDELTITVLVGSCKDGFCETDGSSECRNITLAEEDSQEEEGAAAEEEDEEDEEDEEEEEAEEEREDDHDDA
notes: yeast surface display
Q: Does B11 bind [3]?
A: binds

B12: P1030_AMBPA (other)
chain: GPPSIPGNESIPGCGDAGTTTAPEDNPKHYGTLTDKKGCTLPIIGTWMTAVDHQHLQGTRGERRGPTGKVNLPASCRKNCHGRQEILRDGIPCRKVVGNPKGSKKHLKSGCLRGKCLAGQCVNDGRRISCYVPRNITDTEPTPGLLAE
notes: yeast surface display
Q: Does B12 bind [9]?
A: binds

B13: P1126_AMBCA (other)
chain: KPQILQRTDKSTDSEWDPQTCPETCIPSKNITCSDGCVCVKLGEEEEGTCFNMTGVDWLGSPSDD
notes: yeast surface display
Q: With B13 as the binder, how does the “% cells over threshold fluorescence” value [2] read?
A: 56%

B14: P993_AMBPA (other)
chain: HRHYDPNEPCLIAGLKTPRDALPAGCRYDCMIKKNQKLRDGLLCLDVPEKVVKRMVNYLNYSCPLGTCRKGICKRKHRNVRCQKYPVFYMSPPK
notes: yeast surface display
Q: Does B14 bind [9]?
A: binds

B15: CCL22_HUMAN (ligand)
chain: GPYGANMEDSVCCRDYVRYRLPLRVVKHFYWTSDSCPRPGVVLLTFRDKEICADPRVPWVKMILNKLSQ
Q: How did the Kd [4] turn out when B15 was run?
A: 3.97 nM

Q: What about the Kd [10] of the same binder?
A: 16.5 nM

Q: And the Kd [11]?
A: 27 nM

B16: P1095_IXORI (other)
chain: HSPVAGSEVQKLTSDPNDDIDVSYCGMNCTVVNGKSDECSENCKCLHEGDDPKGICVAITYFGDWGDPNDDPKINEATPQTQIFEKKRK
notes: yeast surface display
Q: How did the “% cells over threshold fluorescence” value [7] turn out when B16 was run?
A: 47%

B17: P1100_IXORI (other)
chain: GSKGSSASQSSDNSVVAKFCDTNCTINEGGKWTECKGGCFCVHVGNETVGRCMKLDGDYDYPSPKPEE
notes: yeast surface display
Q: B17 was tested. Which “% cells over threshold fluorescence” value [2] did it give?
A: 55%

B18: CCL27_HUMAN (ligand)
chain: FLLPPSTACCTQLYRKPLSDKLLRKVIQVELQEADGDCHLQAFVLHLAQRSICIHPQNPSLSQWFEHQERKLHGTLPKLNFGMLRKMG
Q: Which Kd [4] does the source give for B18 here?
A: 38.9 nM

B19: P458_IXORI (other)
chain: GSKQPGAAGSSSDSVEAVFCPTNCTKGTNGAWSGCSDDCICVHVGENTEGSCMKFSGDYDYPTPEA
notes: yeast surface display
Q: For B19, which “% cells over threshold fluorescence” value [2] is on record?
A: 37%

B20: P1086_IXORI (other)
chain: GSKGQRASQVSETSITAEFCDTSCTQGTDKTWSGCSGDCFCVHVGNDTEGRCMRWDGDYPSAEEEE
notes: yeast surface display
Q: B20 was tested. Which “% cells over threshold fluorescence” value [2] did it give?
A: 54%
